The target in the data set is His6-PfSSB (Plasmodium falciparum 3D7, UniProt Q8I415 77-284). The data set can be described thus: EMSA.

B1: 70-mer ssDNA oligonucleotide (ssDNA)
DNA: CTGCCACACACCACCAAAGCTAACTGACAGGAGAATCCAGATGGATCATTTAAAGCATTTGCAACAATTG
In the case of B1, the binding result is reported as “binds”.

For the origin of these results see paper PMC2978346.
